Assay [1] addresses T1, CCL5_HUMAN (human), P13501.
T1 chain: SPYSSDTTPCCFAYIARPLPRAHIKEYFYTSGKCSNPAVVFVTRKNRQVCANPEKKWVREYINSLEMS
As to the kind of experiment: BLI. The conditions noted are these: remark: other sources report otherwise.

In assay [2] the target is T2, CCL8_HUMAN (human), P80075.
T2 chain: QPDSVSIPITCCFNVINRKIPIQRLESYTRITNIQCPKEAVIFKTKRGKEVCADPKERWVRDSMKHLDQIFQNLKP
As to the kind of experiment: fluorescence polarisation; Kd2, two-site fit. The conditions noted are these: modification not given. On the technique in general: Fluorescence polarisation rises when a labelled molecule tumbles more slowly, as on binding a larger partner.

The target of assay [3] is T2, CCL8_HUMAN (human), P80075. The assay can be described thus: fluorescence polarisation; Kd1, two-site fit. The settings on record: modification not given.
For assay [4], the target named is T2, CCL8_HUMAN (human), P80075. As to the kind of experiment: FACS, inhibition of CCL8-647 binding to THP-1 cells. The settings on record: modification not given. On the technique in general: A flow cytometer gives signals particle by particle.

B1: P974_AMBCA, A0A023FDY8 22-118 (protein)
chain: ENTQQEEQDYDYGTDTCPFPVLANKTNKAKFVGCHQKCNGGDQKLTDGTACYVVERKVWDRMTPMLWYECPLGECKNGVCEDLRKKEDCRKGNGEEK
In the case of B1, the Kd (in general, a measure of binding affinity in units of concentration) in assay [1] was 160 nM.
Consider EDEDYEDFFKPVTAYF [P672_PEP-FITC], for which the figures for the Kd in assay [2] and in assay [3] were 252 nM and 11.9 nM, respectively.
EDEDYEDFFKPVTAYF [P672_PEP (peptide BK1.1)]: the IC50 (in general, the concentration that inhibits the measured activity by half) in assay [4] was determined as 4.9 µM.

(Values after patent US20200247855A1, “THERAPY AND DIAGNOSTICS” (OXFORD UNIVERSITY INNOVATION LIMITED, priority 2017, published 2020).)
